Measurements published in doi:10.1101/2021.06.14.448324.

Columns and labels:
DTX3L D1 domain (human) = test: cross-linking
DTX3L D2 domain (human) = test: cross-linking

stoichiometry N (DTX3L D1 domain (human))	stoichiometry N (DTX3L D2 domain (human))	Substance
2	–	DTX3L D1 domain (domain or fragment)
–	4	DTX3L D2 domain (domain or fragment)
